Data published in publication PMC10176472.

Legend:
GST-CDK4 = GST-CDK4 (UniProt P11802); experiment: MST; microscale thermophoresis of MBP-P16p and MBP-cycP16p with GST-CDK4; three replicate measurements
[1] = target: CDK4 from MCF-7 cell lysate (human (endogenous in MCF-7)) (UniProt P11802)
[2] = target: CDK4 from MCF-7 cell lysate (human (endogenous in MCF-7)) (UniProt P11802); remark: listed apart in the source

## MBP-P16p (linear counterpart of MBP-cycP16p) (from UniProt P42771 83-103) (peptide)
GST-CDK4
  Kd: 117 nM

## cyclized MBP-P16p protein (MBP-cycP16p) (from UniProt P42771 83-103) (peptide)
GST-CDK4
  Kd: 27.7 nM

## bicyclic cycRGD-mCh-cycP16p (from UniProt P42771 83-103)
[1]
  G0/G1 cell cycle arrest of MCF-7 cells, time course up to 72 h in serum-supplemented medium: 88%
[2]
  G0/G1 cell cycle arrest of MCF-7 cells treated for 24 h with different concentrations, flow cytometry; value at 15 μM: 76.7%
